Experimental data published in article PMC9174126.

Target: collagen I coupled to the Biacore CM5 chip (UniProt P02452)
Assay: SPR; Biacore; SPARC-WT and SPARC-Fut8KO on collagen I; responses compared at 300 s; sensorgrams shown in Fig. 2C of Ref. [20]

Chain of UniProt P02452 (P02452 23-1218, chain 1 of 2): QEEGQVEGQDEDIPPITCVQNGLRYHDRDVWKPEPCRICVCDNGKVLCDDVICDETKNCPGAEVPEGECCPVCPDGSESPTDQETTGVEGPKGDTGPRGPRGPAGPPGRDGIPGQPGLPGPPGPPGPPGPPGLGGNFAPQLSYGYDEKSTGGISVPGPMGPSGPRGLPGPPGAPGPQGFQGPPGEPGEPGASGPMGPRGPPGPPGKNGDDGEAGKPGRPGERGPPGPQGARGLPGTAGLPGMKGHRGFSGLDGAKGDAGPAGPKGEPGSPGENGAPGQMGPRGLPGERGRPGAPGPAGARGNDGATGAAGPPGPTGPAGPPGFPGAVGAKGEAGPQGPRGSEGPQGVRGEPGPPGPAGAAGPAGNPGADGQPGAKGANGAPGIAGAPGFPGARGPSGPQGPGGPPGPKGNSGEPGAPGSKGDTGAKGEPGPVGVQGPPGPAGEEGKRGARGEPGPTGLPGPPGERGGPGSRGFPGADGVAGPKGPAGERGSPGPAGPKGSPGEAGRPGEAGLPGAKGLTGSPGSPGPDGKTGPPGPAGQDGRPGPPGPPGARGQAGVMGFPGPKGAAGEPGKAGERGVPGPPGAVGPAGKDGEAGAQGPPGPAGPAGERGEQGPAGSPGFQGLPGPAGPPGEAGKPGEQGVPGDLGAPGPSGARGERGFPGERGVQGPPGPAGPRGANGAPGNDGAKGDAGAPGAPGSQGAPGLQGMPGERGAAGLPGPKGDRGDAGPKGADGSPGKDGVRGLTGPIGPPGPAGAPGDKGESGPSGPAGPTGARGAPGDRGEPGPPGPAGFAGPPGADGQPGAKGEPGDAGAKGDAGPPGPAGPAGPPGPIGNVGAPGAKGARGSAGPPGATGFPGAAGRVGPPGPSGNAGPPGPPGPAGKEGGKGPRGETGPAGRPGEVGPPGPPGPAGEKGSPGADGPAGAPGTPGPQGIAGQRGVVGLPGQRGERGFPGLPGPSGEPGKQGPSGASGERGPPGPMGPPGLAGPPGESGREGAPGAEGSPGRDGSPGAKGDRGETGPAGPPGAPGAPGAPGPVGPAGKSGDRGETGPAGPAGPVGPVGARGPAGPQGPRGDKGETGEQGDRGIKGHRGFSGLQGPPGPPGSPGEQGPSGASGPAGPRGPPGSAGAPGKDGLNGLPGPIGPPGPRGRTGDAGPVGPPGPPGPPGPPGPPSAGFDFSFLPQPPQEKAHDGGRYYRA
Chain of UniProt P02452 (P08123 80-1119, chain 2 of 2, further chain): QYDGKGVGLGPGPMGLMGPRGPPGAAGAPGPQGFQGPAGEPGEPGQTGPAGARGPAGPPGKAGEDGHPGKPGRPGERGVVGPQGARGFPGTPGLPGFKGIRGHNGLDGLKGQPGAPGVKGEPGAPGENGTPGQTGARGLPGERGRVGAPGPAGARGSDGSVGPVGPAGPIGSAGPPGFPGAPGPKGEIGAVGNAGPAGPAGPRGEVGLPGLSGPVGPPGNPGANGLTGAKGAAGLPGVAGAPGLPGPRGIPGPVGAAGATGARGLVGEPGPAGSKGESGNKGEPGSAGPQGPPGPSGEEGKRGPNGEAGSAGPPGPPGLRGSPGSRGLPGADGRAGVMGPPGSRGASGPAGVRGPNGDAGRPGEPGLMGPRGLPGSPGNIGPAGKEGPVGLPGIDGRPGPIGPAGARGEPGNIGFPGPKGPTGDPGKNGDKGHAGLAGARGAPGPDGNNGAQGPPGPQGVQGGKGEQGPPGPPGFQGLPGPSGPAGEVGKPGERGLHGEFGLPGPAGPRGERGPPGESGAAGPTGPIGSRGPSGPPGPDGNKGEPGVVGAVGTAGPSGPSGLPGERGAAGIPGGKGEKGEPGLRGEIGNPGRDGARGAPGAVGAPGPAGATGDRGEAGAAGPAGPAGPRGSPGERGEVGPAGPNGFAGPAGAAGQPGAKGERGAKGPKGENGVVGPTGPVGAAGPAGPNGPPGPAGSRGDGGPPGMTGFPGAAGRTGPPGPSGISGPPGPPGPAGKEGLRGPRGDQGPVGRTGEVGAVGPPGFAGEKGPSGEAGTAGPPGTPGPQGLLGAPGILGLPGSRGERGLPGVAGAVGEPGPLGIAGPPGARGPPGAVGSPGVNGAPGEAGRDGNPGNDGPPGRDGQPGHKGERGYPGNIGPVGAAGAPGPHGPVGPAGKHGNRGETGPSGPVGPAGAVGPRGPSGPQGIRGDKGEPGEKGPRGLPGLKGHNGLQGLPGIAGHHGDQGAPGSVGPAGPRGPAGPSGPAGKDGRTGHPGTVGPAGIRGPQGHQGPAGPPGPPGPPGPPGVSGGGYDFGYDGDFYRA

binding response (RU) relative to SPARC-WT at 300 s: 40%
B1: recombinant His-tagged human SPARC from FUT8-knockout HEK-293T cells (SPARC-Fut8KO), not core-fucosylated (natural protein)
chain: APQQEALPDETEVVEETVAEVTEVSVGANPVQVEVGEFDDGAEETEEEVVAENPCQNHHCKHGKVCELDENNTPMCVCQDPTSCPAPIGEFEKVCSNDNKTFDSSCHFFATKCTLEGTKKGHKLHLDYIGPCKYIPPCLDSELTEFPLRMRDWLKNVLVTLYERDEDNNLLTEKQKLRVKKIHENEKRLEAGDHPVELLARDFEKNYNMYIFPVHWQFGQLDQHPIDGYLSHTELAPLRAPLIPMEHCTTRFFETCDLDNDKYIALDEWAGCFGIKQKDIDKDLVI
modifications: not core-fucosylated at N116
